Patent US20170009288, “METHOD FOR CONTROLLED DNA FRAGMENTATION” (THERMO FISHER SCIENTIFIC BALTICS UAB, published 2017)

Assays:
[1] = molecular target: T1, MuA transposase (UniProt P07636 P07636:1-663); test: EMSA; strong complex; 2% agarose with BSA and heparin, 1xTBE; assembled 30 C 1 h; settings: tags: Thermo Scientific F-750 (stand-alone MuA transposase); chain copies: 4; 5' overhang TGCT side of non-transferred strand
Protocol: (§1) In parallel, EMSA analysis was performed for all pre-formed MuA-transposon complexes used in the first experiment (Table 3). DNA shifts resulting from transposome complex formation were analyzed using agarose gel electrophoresis in 2% agarose gel containing 87 μg/ml BSA and 87 μg/ml heparin in 1×TBE buffer. DNA was stained with ethidium bromide. […] Weaker complexes were formed with transposons No. 5, 10, 11.

[2] = molecular target: T1, MuA transposase; test: EMSA; no apparent complex formation; settings: tags: Thermo Scientific F-750 (stand-alone MuA transposase); chain copies: 4
Protocol: as §1

T1 sequence (P07636 whole entry, one chain of several): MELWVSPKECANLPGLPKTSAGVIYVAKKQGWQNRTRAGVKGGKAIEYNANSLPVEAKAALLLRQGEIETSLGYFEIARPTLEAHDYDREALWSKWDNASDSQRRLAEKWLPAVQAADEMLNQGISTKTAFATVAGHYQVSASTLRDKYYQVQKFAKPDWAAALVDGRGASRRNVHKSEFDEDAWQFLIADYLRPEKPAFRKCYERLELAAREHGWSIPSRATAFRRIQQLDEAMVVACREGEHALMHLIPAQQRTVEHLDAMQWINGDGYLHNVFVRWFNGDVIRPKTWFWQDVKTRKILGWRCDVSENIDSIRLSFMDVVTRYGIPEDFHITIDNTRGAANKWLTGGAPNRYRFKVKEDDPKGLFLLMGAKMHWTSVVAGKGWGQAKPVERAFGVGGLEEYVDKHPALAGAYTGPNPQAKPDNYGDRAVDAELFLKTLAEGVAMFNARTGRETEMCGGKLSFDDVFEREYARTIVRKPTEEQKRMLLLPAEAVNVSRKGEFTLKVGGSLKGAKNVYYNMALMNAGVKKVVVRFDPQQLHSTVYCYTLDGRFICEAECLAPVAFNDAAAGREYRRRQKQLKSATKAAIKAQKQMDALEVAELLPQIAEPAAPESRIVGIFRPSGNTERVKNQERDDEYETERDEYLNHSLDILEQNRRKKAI

B1: Control native Mu transposon end (dsDNA)
DNA 1: GTTTTCGCATTTATCGTGAAACGCTTTCGCGTTTTTCGTGCGTCAGTTCA
DNA 2: TGCTGAACTGACGCACGAAAAACGCGAAAGCGTTTCACGATAAATGCGAAAAC
B1: binds [1].

B2: Transposon No. 9 (dsDNA)
DNA 1: GTTCTCGCATCTATCGTGAAAAGCTTCTCCGTTCTTCGGCCGCCGCTTCA
DNA 2: TGCTGAAGCGGCGGCCGAAGAACGGAGAAGCTTTTCACGATAGATGCGAGAAC
B2: no binding [2].
